Assay results taken from US20240010750A1 (Bayer, published 2024).

What was measured:
Test in all cases: ELISA, coated antigen, 1st exp.
[1] = target: T1, human alpha2-Antiplasmin (human, UniProt P08697 40-491)
T1 construct: Bought (antibodies online, ABIN2544306); also called human A2AP; a2AP
T1 sequence: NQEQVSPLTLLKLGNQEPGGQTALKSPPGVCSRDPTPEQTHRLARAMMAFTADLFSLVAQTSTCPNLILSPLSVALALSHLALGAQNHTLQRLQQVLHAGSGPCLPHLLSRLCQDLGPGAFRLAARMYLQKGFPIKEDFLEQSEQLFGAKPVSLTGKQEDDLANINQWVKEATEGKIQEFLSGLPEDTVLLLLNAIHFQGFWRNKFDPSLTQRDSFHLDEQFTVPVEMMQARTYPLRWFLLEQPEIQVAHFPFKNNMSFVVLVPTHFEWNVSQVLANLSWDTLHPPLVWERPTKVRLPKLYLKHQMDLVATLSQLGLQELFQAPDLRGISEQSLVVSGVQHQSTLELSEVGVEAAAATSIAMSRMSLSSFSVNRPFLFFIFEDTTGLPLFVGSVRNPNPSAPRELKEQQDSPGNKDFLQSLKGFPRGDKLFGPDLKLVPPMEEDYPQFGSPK

[2] = target: T2, rabbit alpha2-Antiplasmin (rabbit (Oryctolagus cuniculus))
T2 construct: Made in house in HEK293 cells, purified by Ni-IMAC and SEC (a His tag is implied but not described); also called rabbit A2AP; Oryctolagus cuniculus A2AP
T2 chain: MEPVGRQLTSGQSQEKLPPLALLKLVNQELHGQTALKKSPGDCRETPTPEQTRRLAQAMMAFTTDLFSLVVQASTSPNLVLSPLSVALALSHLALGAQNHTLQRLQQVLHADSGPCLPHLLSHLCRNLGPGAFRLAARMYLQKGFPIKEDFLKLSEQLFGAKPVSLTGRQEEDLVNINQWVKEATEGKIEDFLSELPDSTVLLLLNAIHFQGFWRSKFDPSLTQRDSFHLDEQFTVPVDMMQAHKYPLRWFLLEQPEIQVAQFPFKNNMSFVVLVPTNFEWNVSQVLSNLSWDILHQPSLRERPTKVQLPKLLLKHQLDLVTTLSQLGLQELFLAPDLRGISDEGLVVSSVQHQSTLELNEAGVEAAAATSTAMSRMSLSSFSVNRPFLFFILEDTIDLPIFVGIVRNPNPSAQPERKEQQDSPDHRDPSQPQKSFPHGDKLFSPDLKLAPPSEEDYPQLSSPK

[3] = target: T3, cynomolgus alpha2-Antiplasmin (cynomolgus (Macaca fascicularis), UniProt P08697 28-491 (human entry))
T3 construct: Made in house in the same way as the rabbit protein; also called cynomolgus A2AP; Macaca fascicularis A2AP
T3 chain: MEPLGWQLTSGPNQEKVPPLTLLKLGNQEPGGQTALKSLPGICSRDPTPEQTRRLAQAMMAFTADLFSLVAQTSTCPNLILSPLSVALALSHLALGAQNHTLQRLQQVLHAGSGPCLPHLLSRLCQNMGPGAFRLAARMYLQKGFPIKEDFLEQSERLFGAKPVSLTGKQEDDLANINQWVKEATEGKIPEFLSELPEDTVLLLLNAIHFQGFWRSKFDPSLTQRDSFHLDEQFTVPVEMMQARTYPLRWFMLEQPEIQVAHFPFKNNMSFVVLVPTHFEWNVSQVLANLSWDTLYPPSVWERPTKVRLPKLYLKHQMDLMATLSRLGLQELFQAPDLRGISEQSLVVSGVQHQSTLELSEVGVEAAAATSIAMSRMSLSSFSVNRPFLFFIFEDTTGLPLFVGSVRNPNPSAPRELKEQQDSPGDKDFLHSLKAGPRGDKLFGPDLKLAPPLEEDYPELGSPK

EC50 [1]: 120 nM
EC50 [2]: 6 nM
EC50 [3]: 90 nM
B1: TPP-12387 hIgG1 (antibody, V domains shown)
VH: EVQLLESGGGLVQPGGSLRLSCAASGFTFDDYAMSWVRQAPGKGLEWVSAIGTGGGTYYADSVKGRFTISRDNSKNTLYLQMNSLRAEDTAVYYCAREYYDSSGYYHLDYWGQGTLVTVSS
VL: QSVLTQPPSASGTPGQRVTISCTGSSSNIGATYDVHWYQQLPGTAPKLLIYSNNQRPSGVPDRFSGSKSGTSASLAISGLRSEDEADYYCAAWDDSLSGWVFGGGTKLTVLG
notes: Fully human IgG1 lambda from the BioInvent n-CoDeR Fab lambda library; parental lead antibody
